In PMC11250029:

Molecular target: lavanducyanin halogenase (LvcH) (Streptomyces sp. CNZ-289)
Test: SEC

lavanducyanin halogenase (LvcH) (enzyme)
stoichiometry N: 2
